Data on six molecules can be found in CN113402607A (BEIJING EASTERN BIOTECH CO LTD, dated 2021).

Positions count from the first letter of the chain named.

Usually IC50 stands for the concentration that gives 50% inhibition. A low value points to higher potency.

Experiment [1] deals with LAP-TGFβ1 overexpressed on cells (过表达LAP-TGFβ1的CHO细胞) (UniProt P01137 30-390, limits assumed). Put plainly: cell-based or functional assay.
Experiment [2] has as its target LAP-TGFβ1抗原 (coated antigen) (UniProt P01137 30-390, limits assumed). Put plainly: competition ELISA on coated LAP-TGFβ1; competitor biotin-labelled 28G11 at 1 μg/ml. (An ELISA detects its analyte on a solid surface through an enzyme-linked reagent.)

LAP-TGFβ1抗原 (coated antigen), sequence (P01137 30-390 limits assumed): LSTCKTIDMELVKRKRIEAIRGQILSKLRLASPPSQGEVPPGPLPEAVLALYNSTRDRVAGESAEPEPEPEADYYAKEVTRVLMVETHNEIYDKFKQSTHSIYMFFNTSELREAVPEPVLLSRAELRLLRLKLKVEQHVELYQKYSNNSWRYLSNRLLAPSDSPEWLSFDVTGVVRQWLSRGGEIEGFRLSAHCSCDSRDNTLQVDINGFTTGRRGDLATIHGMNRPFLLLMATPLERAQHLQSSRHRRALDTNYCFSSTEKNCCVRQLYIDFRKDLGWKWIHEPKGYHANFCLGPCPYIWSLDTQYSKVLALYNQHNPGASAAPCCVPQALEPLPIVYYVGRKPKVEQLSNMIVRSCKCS
LAP-TGFβ1 overexpressed on cells (过表达LAP-TGFβ1的CHO细胞), sequence (P01137 30-390 limits assumed): as above

B1: 抗LAP单克隆抗体 A-1 (全抗, mouse IgG2a / mouse Ck) (antibody, V domains shown)
VH: EVQLEQSGPELKKPGETVKISCKASGYTFTSYGMNWVKQAPGKALKWMGWINTYTGEPTYADDFKGRFAYSLEATANTAYLQIYNLKNEDTATYFCARSGRYTRPLYYIMDFWGQGTSVTVSS
VL: not shown
notes: Full antibody made in HEK293E from vector pTSE; also called A-1抗体
Take B1: the “IC50(μg/ml), 抑制细胞表面TGFβ1的释放 (PAI-LUC Mv.1.lu reporter cells, luciferase)” value in experiment [1] amounted to 0.741 µg/mL. In addition, in experiment [2], the IC50 was determined as 0.0972 µg/mL.

B2: 抗LAP单克隆抗体 A-5 (全抗, mouse IgG2a / mouse Ck) (antibody, V domains shown)
VH: EVQLQQSGAVLVRPGDSVKLSCKASGYSFTRSWINWVKQRPGQGLEWIGNIYPSDSYTNYNQKFKDKATLTVDKSSSTAYMQLRSPTSEDSAVYYCTNYYLYYFDYWGQGTTLTVSS
VL: DIVLTQSPSSLAVSTGEKVTMSCKSSQSLLNSRTRKSYLAWYQQKPGQSPKLLIYWTSIRESGVPDRFTGNGSGTDFTLTISSVQAEDLAVYYCKQSYNLFTFGGGTKLEMKR
notes: Full antibody made in HEK293E from vector pTSE
As to B2, the “IC50(μg/ml), 抑制细胞表面TGFβ1的释放 (PAI-LUC Mv.1.lu reporter cells, luciferase)” value in experiment [1] turned out to be 1.69 µg/mL. In addition, the IC50 in experiment [2] is 0.0526 µg/mL.

B3: 抗LAP单克隆抗体 A-4 (全抗, mouse IgG2a / mouse Ck) (antibody, V domains shown)
VH: EVKLQESGPGLVAPSQSLSITCTVSGFSLTTYGVSWVRQPPGKGLEWLGIIWGDGTTIYQSGLISRLSISKDDSKSQVFLKLSSLQTDDTATYYCAKHYFVMDYWGQGTSVTVSS
VL: B2 VL with T15A, S22N, T34I, S37N, T57A, I59T, N71S, F101W, M111I, R113A
notes: as for B2
In experiment [2], B3 registered an IC50 of 0.00805 µg/mL.

B4: 抗LAP单克隆抗体 A-3 (全抗, mouse IgG2a / mouse Ck) (antibody, V domains shown)
VH: EVKLQESGAELVMPGASVKMSCKASGYTFTDYWMHWVKQRPGQGLEWIGAIDTSDSYTSYNQKFKGKATLTVDESSSTAYMQLSSLTSEDSAVYYCARKALSGYFDVWGAGTTVTVSS
VL: DIVLTQTPSSLSASLGGKVTITCKASQDIYKYIAWYQHKPGKGPRLLIHYTSTLQPGIPSRFSGSGSGRDYSFSISNLEPEDIATYYCLQYDNLRTFGGGTKLEIKA
notes: as for B2
For the molecule B4, the IC50 in experiment [2] worked out at 0.00695 µg/mL.

B5: 抗LAP单克隆抗体 A-6 (全抗, mouse IgG2a / mouse Ck) (antibody, V domains shown)
VH: QVKLQESGPELVKPGASVKISCKASGYTFTDYNMHWVKQSHGKSLEWIGYFYPYNGGTGYKQKFKSKATLTVDNSSSTAYMELRSLTSEDSAVYYCARNHYYYYAMDYWGQGTSVTVSS
VL: DIVMTQTPSSLAVSAGEKVTMSCKSSQSLLNSRTRKNYLAWYQQKPGQSPKLLIYWASTRESGVPDRFTGSGSGTDFTLTISSVQAEDLAVYYCKQSYNLPWTFGGGTKLEIKA
notes: as for B2
As for B5, the IC50 in experiment [2] was determined as 0.0557 µg/mL.

B6: 抗LAP单克隆抗体 A-2 (全抗, mouse IgG2a / mouse Ck) (antibody, V domains shown)
VH: EVQLEESGAELVRSGASVKLSCTASGFNFNDYYMHWVKQRPEQGLEWIGWIDPENGDTEYAPKFQVKATMTADTSSNTAYLHLSSLASEDTAVYYCNTPTEDMDYWGQGTSVTVSS
VL: DIVMTQSPSSLAVSAGEKVTMSCKSSQSLFNSRTRKNYLAWYQQKPGQSPKLLIYWASTRGSGVPDRFTGSGSGTDFTLTISSVQAEDLAVYYCKQSYNLLTFGAGTKLELKA
notes: as for B2
In turn, B6 returned an IC50 in experiment [2] of 0.0764 µg/mL.
